Biological target: the molecule itself
Assay: negative stain electron microscopy; Dam1 complex-MT reaction mix adsorbed on glow-discharged grids, washed with 25 mM HEPES pH 7.4, 500 mM NaCl, 1 mM EDTA, stained with 0.7% uranyl formate; rings of the complex around MTs

B1: S. cerevisiae Dam1 complex containing Dad2-FL (DASH^WT) (complex)
chain 1: MMASTSNDEEKLISTTDKYFIEQRNIVLQEINETMNSILNGLNGLNISLESSIAVGREFQSVSDLWKTLYDGLESLSDEAPIDEQPTLSQSKTK
chain 2: MDSIDEQIAIKRKELQSLQKITSLTDGLKIQLTELNEQIKEMGMNADSVAQLMNNWDSIINNISQASLGLLQYAEGDYEIGPWKDSKKKESEQSNETGLEAQENDKNDEDNDEDEDLVPLPETMVRIRVDGNE
chain 3: MEHNLSPLQQEVLDKYKQLSLDLKALDETIKELNYSQHRQQHSQQETVSPDEILQEMRDIEVKIGLVGTLLKGSVYSLILQRKQEQESLGSNSK
chain 4: MENPHEQVQANILSRIIGNVKRLNESVAILNQELVTINNRNKNLEIMGAICDNYHSSVQFNLEATNNKKPPL
chain 5: MSEDKAKLGTTRSATEYRLSIGSAPTSRRSSMGESSSLMKFADQEGLTSSVGEYNENTIQQLLLPKIRELSDSIITLDSNFTRLNFIHESLADLNESLGSLLYGIMSNSWCVEFSQAPHDIQDDLIAIKQLKSLEDEKNNLVMELSNMERGIKRKKDEQGENDLAKASQNKQFNQPLFPSSQVRKYRSYDNRDKRKPSKIGNNLQVENEEDYEDDTSSEASFVLNPTNIGMSKSSQGHVTKTTRLNNNTNSKLRRKSILHTIRNSIASGADLPIENDNVVNLGDLHPNNRISLGSGAARVVNGPVTKNRNSMFSGRAERKPTESRHSVAKKTEKKINTRPPFR
chain 6: MSEQSQLDDSTIDKLIPQIFNEMRSNLNNTTNKFPKSTGGGASDNISANSNSIRSFNSITTQSLLKESESLDKITAMIKNVTAALKNNLPVYVNQVHEVCKSTNSILDSWINIHSQAGYIHKLMSDQTYLKLINDRLHNENVNTNDEDGSTLHNVIALKKKEILDLRQKLENRKGEKDAAPAKPPNQGLNPRYGVQSGRRPVPSAGISNNGRVRKTHVPASKRPSGIPRVTNRWTKPTASSSRKMFR
chain 7: MDSASKEETLEKLDQEITVNLQKIDSNLSFCFHKITQDIIPHVATYSEICERIMDSTEWLGTMFQETGLVNLQANAAAPVGNAPVKSLVSNNVGIFPTSAEEASRQSQTDNGPNEADSAVHVNRDVHSMFNNDSIDDFHTANITSTGQILKLPDSSDEDTGSEAVPSREQTDLTGEGHGGADDEQDESTIQRQSRKRKISLLLQQQYGSSSSMVPSPIVPNKMRKQLAHEEHINNDGDNDDENSNNIESSPLKQGHHHPKGQADDNNEGPDEEESTKEVPKPGTIIHFSTNR
chain 8: MNANKQRQYNQLAHELRELQTNLQETTKQLDIMSKQCNENLVGQLGKVHGSWLIGSYIYYMEQMLGKTQ
chain 9: MTDALEQSVLALEGTVSVLKDSVESLKCANEPSTNLASTMLQTKRVFRLVPEYDVERSKLDLIEEVEPLVRTLGDKLRKSMGRMQRELDTLQQTYELNDLRLKKNISMDDDDALNSPDMGQEYEGRDADDVVMMASSTNEELEELKKLKEKKKQLENKLEILKQK
chain 10: MGESLDRCIDDINRAVDSMSTLYFKPPGIFHNAILQGASNKASIRKDITRLIKDCNHDEAYLLFKVNPEKQSVSRRDGKEGVFDYVIKRDTDMKRNRRLGRPGEKPIIHVPKEVYLNKDRLDLNNKRRRTATTSGGGLNGFIFDTDLIGSSVISNSSSGTFKALSAVFKDDPQIQRLLYALENGSVLMEEESNNQRRKTIFVEDFPTDLILKVMAEVTDLWPLTEFKQDYDQLYHNYEQLSSKLRFIKKEVLLQDDRLKTMSQYHPSSSHDVAKIIRKEKDEIRRLEMEIANLQE
notes: Dad1, S. cerevisiae, subunit of the Dam1 (DASH) complex; Dad2, S. cerevisiae, subunit of the Dam1 (DASH) complex; Dad2-FL; Dad3, S. cerevisiae, subunit of the Dam1 (DASH) complex; Dad4, S. cerevisiae, subunit of the Dam1 (DASH) complex; Dam1, S. cerevisiae, subunit of the Dam1 (DASH) complex; Duo1, S. cerevisiae, subunit of the Dam1 (DASH) complex; Ask1, S. cerevisiae, subunit of the Dam1 (DASH) …
**Q.** Does B1 bind?
**A.** Result: binds

— PMC10551642, “Functional plasticity in chromosome–microtubule coupling on the evolutionary time scale” (Life Science Alliance, 2023)
